Laboratory results: patent US20100286035A1, “NEUROMEDIN U DERIVATIVE” (Takeda Pharmaceutical Company Limited, published 2010)
*1 amine or outer side, *2 acyl side, *3 side chain or, on linkers, in order; H or OH if unused. Primed or numbered codes have the meaning given here. Where no end group is shown, it is not given here. The star is where a group is joined. KMUS = cross-linking reagent joining N-terminal amine to thiol PEG, O=C1CC([*:3])C(=O)N1CCCCCCCCCCC(=O)[*:2]; GMBS = cross-linking reagent joining N-terminal amine to thiol PEG, O=C1CC([*:3])C(=O)N1CCCC(=O)[*:2]; SMCC = cross-linking reagent joining N-terminal amine to thiol PEG; Hexanoyl(6-succinimido-3yl) = O=C1CC([*:1])C(=O)N1CCCCCC(=O)[*:2]; AMBz = omega-aminocarboxylic acid linker (structure only drawn); AU″ = omega-aminocarboxylic acid linker (structure only drawn); ACP = omega-aminocarboxylic acid linker; Traut's reagent = N=C(CCCS)*; AB = not defined here; AD = not defined here; AP = not defined here; AU = not defined here

Key:
human FM3 (NMUR1) [1] = target: T1, human FM3 (NMUR1) (human); test: competition with 125I-NMU8, membrane fraction, filter binding; only one value in the row, read as the FM3 column
T1 chain: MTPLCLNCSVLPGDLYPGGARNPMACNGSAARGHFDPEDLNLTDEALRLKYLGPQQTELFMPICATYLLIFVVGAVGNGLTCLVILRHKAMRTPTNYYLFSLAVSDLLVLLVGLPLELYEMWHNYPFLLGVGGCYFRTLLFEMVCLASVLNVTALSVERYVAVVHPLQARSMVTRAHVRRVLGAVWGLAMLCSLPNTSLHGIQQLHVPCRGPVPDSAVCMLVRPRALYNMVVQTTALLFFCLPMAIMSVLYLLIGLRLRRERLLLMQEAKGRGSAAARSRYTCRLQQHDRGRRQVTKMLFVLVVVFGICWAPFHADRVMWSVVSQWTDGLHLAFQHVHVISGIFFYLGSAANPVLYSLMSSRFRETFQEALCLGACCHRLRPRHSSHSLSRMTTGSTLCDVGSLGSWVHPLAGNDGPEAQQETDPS
Experimental: (§1) The protein concentrations in the FM3 and TGR1 membrane fractions were 12 and 22 μg/ml, respectively.
(§2) Namely, dilution strings of NMU derivatives and PEG conjugates were provided and diluted membrane fraction solutions (200 μl) were added. The mixture was thoroughly blended with a Vortex and the labeled ligand 2 μl (final concentration […]) was added to carry out the reaction at 25° C. for 60 min. According to the aforementioned operations, the amount of binding of the labeled ligand remaining in the filter was measured and the IC50 values were calculated using graph pad PRISM (FIG. 4A (FM3 receptor binding), FIG. 4B (TGR1 receptor binding), FIG. 4C (FM3 receptor binding), FIG. 4D (TGR1 receptor binding) Table 9).

human FM3 (NMUR1) [2] = target: T1, human FM3 (NMUR1); test: competition with 125I-NMU8, human FM3/CHO membrane fraction, filter binding
Experimental: as §1, §2

human TGR1 (NMUR2) [3] = target: human TGR1 (NMUR2) (human); test: competition with 125I-NMU8, human TGR1/CHO membrane fraction, filter binding
Experimental: as §1, §2

human TGR1 (NMUR2) [4] = target: human TGR1 (NMUR2) (human); test: Scatchard analysis, radioligand filter binding, human TGR1/CHO membrane fraction
Experimental: as §1

human FM3 (NMUR1) [5] = target: T1, human FM3 (NMUR1); test: Scatchard analysis, radioligand filter binding, human FM3/CHO membrane fraction
Experimental: as §1

Chain of human TGR1 (NMUR2) (human) (chain, as listed by the source): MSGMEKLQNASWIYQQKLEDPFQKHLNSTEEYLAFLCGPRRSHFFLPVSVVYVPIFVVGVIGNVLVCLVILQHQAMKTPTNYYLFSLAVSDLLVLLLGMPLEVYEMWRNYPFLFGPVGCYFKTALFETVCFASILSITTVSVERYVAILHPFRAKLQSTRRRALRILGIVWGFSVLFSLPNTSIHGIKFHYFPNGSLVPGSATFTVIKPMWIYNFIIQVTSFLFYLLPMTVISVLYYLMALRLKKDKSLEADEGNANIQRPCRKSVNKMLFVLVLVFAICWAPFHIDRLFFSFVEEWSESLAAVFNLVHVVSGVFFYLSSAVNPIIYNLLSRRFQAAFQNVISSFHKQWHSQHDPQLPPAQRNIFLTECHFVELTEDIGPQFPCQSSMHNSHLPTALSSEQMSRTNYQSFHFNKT

{PEG 30 kDa-AB}-YFLFRPRN-NH2 (reading uncertain; also: printed as PEG30k(AB)-NMU-8) [PEG30k(AB)-NMU-8] was tested, and the IC50 (human FM3 (NMUR1) [1]) was 82 nM.

Work on {(PEG20k)2-AD}-YFLFRPRN-NH2 (reading uncertain; also: printed as (PEG20k)2(AD)-NMU-8) [(PEG20k)2(AD)-NMU-8] yielded an IC50 (human FM3 (NMUR1) [2]) of 380 nM and an IC50 (human TGR1 (NMUR2) [3]) of 730 nM.

Work on {PEG 30 kDa-ACP}-YFLFRPRN-NH2 (also: PEG-aldehyde bound by reductive amination (NH linkage)) [PEG30k(NH-ACP)-NMU-8] yielded an IC50 (human FM3 (NMUR1) [2]) of 7.3 nM and an IC50 (human TGR1 (NMUR2) [3]) of 7.9 nM.

{(PEG20k)2-AB}-YFLFRPRN-NH2 (reading uncertain; also: printed as (PEG20k)2(AB)-NMU-8) [(PEG20k)2(AB)-NMU-8] showed an IC50 (human FM3 (NMUR1) [1]) of 380 nM.

{PEG 30 kDa-AU″}-YFLFRPRN-NH2 [PEG30k(AU)-NMU-8] gave an IC50 (human FM3 (NMUR1) [2]) of 60 nM and an IC50 (human TGR1 (NMUR2) [3]) of 54 nM.

Binder {PEG‑maleimide 30 kDa-Traut's reagent}-YFLFRPRN-NH2 [PEG30k(Traut)-NMU-8] has an IC50 (human FM3 (NMUR1) [2]) of 6.4 nM.

In the case of {PEG 30 kDa-Hexanoyl(6-succinimido-3yl)}-YFLFRPRN-NH2 [PEG30k(EMCS)-NMU-8], the IC50 (human FM3 (NMUR1) [2]) is reported as 11 nM and the IC50 (human TGR1 (NMUR2) [3]) is reported as 11 nM.

Work on {(PEG20k)2-ACP}-YFLFRPRN-NH2 [(PEG20k)2(ACP)-NMU-8] yielded an IC50 (human FM3 (NMUR1) [2]) of 280 nM and an IC50 (human TGR1 (NMUR2) [3]) of 420 nM.

B1: PEG30k(NH-AB)-NMU-8 (peptide)
peptide: {PEG 30 kDa-AB}-YFLFRPRN-NH2
modifications: reading uncertain; also: PEG attached by reductive amination (NH link) to linker, printed as Try-Phe-Leu-Phe-Arg-Pro-Arg-Asn-NH2
Work on B1 yielded an IC50 (human FM3 (NMUR1) [2]) of 2.4 nM and an IC50 (human TGR1 (NMUR2) [3]) of 2.5 nM.

Work on {PEG 30 kDa-AMBz}-YFLFRPRN-NH2 [PEG30k(AMBz)-NMU-8] yielded an IC50 (human FM3 (NMUR1) [2]) of 75 nM and an IC50 (human TGR1 (NMUR2) [3]) of 110 nM.

{PEG 30 kDa-AMBz}-YFLFRPRN-NH2 (also: PEG attached by reductive amination (NH link) to linker) [PEG30k(NH-AMBz)-NMU-8] showed an IC50 (human FM3 (NMUR1) [2]) of 6.7 nM and an IC50 (human TGR1 (NMUR2) [3]) of 9.4 nM.

Binder {(PEG20k)2-AP}-YFLFRPRN-NH2 (reading uncertain; also: printed as (PEG20k)2(AP)-NMU-8) [(PEG20k)2(AP)-NMU-8] has an IC50 (human FM3 (NMUR1) [1]) of 230 nM.

YFLFRPRN-NH2 (also: 125I label (position not given here)) [125I-NMU8 (radiation labeled ligand)] showed a Kd (human TGR1 (NMUR2) [4]) of 135000 nM and a Kd (human FM3 (NMUR1) [5]) of 164000 nM.

Binder {PEG 30 kDa-AP}-YFLFRPRN-NH2 (reading uncertain; also: printed as PEG30k(NH-AP)-NMU-8) [PEG30k(NH-AP)-NMU-8] has an IC50 (human FM3 (NMUR1) [2]) of 6.3 nM and an IC50 (human TGR1 (NMUR2) [3]) of 6.9 nM.

B2: PEG30k(NH-AD)-NMU-8 (peptide)
peptide: {PEG 30 kDa-AD}-YFLFRPRN-NH2
modifications: reading uncertain; also: PEG-aldehyde bound by reductive amination (NH linkage), printed as PEG30k(NH-AD)-NMU-8
For B2, the IC50 (human FM3 (NMUR1) [2]) was 7 nM and the IC50 (human TGR1 (NMUR2) [3]) was 32 nM.

For {PEG 30 kDa-AP}-YFLFRPRN-NH2 (reading uncertain; also: printed as PEG30k(AP)-NMU-8) [PEG30k(AP)-NMU-8], the IC50 (human FM3 (NMUR1) [1]) was 64 nM.

Binder {(PEG20k)2-AU}-YFLFRPRN-NH2 (reading uncertain; also: printed as (PEG20k)2(AU)-NMU-8) [(PEG20k)2(AU)-NMU-8] has an IC50 (human FM3 (NMUR1) [2]) of 330 nM and an IC50 (human TGR1 (NMUR2) [3]) of 560 nM.

{PEG 30 kDa}-YFLFRPRN-NH2 [PEG30k-NMU-8] gave an IC50 (human FM3 (NMUR1) [2]) of 5.7 nM and an IC50 (human TGR1 (NMUR2) [3]) of 66 nM.

C(PEG 30 kDa)FFLFRPRN-NH2 [PEG30k-Cys-NMU-8] was tested, and the IC50 (human FM3 (NMUR1) [2]) was 2.3 nM and the IC50 (human TGR1 (NMUR2) [3]) was 1.9 nM.

{PEG 30 kDa-SMCC}-YFLFRPRN-NH2 [PEG30k(SMCC)-NMU-8] was tested, and the IC50 (human FM3 (NMUR1) [2]) was 4.5 nM and the IC50 (human TGR1 (NMUR2) [3]) was 4.3 nM.

Work on C(PEG 30 kDa)FFLFRPRN-NH2 [PEG30k(NHAc)-Cys-NMU-8] yielded an IC50 (human FM3 (NMUR1) [2]) of 18 nM and an IC50 (human TGR1 (NMUR2) [3]) of 9.1 nM.

{PEG 30 kDa-AU″}-YFLFRPRN-NH2 [PEG30k(NH-AU)-NMU-8] gave an IC50 (human FM3 (NMUR1) [2]) of 18 nM and an IC50 (human TGR1 (NMUR2) [3]) of 22 nM.

In the case of YFLFRPRN-NH2 [NMU-8], the IC50 (human FM3 (NMUR1) [2]) is reported as 0.19 nM and the IC50 (human TGR1 (NMUR2) [3]) is reported as 0.089 nM.

Binder {PEG 30 kDa-KMUS}-YFLFRPRN-NH2 [PEG30k(KMUS)-NMU-8] has an IC50 (human FM3 (NMUR1) [2]) of 51 nM and an IC50 (human TGR1 (NMUR2) [3]) of 26 nM.

{(PEG20k)2-AMBz}-YFLFRPRN-NH2 [(PEG20k)2(AMBz)-NMU-8] showed an IC50 (human FM3 (NMUR1) [2]) of 210 nM and an IC50 (human TGR1 (NMUR2) [3]) of 320 nM.

Binder {PEG 30 kDa-GMBS}-YFLFRPRN-NH2 [PEG30k(GMBS)-NMU-8] has an IC50 (human FM3 (NMUR1) [2]) of 7.5 nM and an IC50 (human TGR1 (NMUR2) [3]) of 4.1 nM.

Binder {PEG30k-ACP}-YFLFRPRN-NH2 [PEG30k(ACP)-NMU-8] has an IC50 (human FM3 (NMUR1) [1]) of 59 nM.

For {PEG 30 kDa-AD}-YFLFRPRN-NH2 (reading uncertain; also: printed as PEG30k(AD)-NMU-8) [PEG30k(AD)-NMU-8], the IC50 (human FM3 (NMUR1) [2]) was 130 nM and the IC50 (human TGR1 (NMUR2) [3]) was 120 nM.

{PEG 30 kDa}-YFLFRPRN-NH2 [PEG30k-NH-NMU-8] was tested, and the IC50 (human FM3 (NMUR1) [2]) was 11 nM and the IC50 (human TGR1 (NMUR2) [3]) was 11 nM.

With {(PEG20k)2}-YFLFRPRN-NH2 [(PEG20k)2-NMU-8] the IC50 (human FM3 (NMUR1) [2]) was 270 nM and the IC50 (human TGR1 (NMUR2) [3]) was 210 nM.
